Data on eight molecules can be found in PMC4885022, “Structural Analysis of dsRNA Binding to Anti-viral Pattern Recognition Receptors LGP2 and MDA5” (Molecular Cell, 2016).

Broadly, the Kd is the free concentration of one partner at which half of the binding sites on the other are occupied at equilibrium, for simple one-to-one binding.

In one series the target is T1, hLGP2 (Homo sapiens, UniProt Q96C10).
T1 construct: gene DHX58; construct not described in main text
T1 sequence (Q96C10 1-678): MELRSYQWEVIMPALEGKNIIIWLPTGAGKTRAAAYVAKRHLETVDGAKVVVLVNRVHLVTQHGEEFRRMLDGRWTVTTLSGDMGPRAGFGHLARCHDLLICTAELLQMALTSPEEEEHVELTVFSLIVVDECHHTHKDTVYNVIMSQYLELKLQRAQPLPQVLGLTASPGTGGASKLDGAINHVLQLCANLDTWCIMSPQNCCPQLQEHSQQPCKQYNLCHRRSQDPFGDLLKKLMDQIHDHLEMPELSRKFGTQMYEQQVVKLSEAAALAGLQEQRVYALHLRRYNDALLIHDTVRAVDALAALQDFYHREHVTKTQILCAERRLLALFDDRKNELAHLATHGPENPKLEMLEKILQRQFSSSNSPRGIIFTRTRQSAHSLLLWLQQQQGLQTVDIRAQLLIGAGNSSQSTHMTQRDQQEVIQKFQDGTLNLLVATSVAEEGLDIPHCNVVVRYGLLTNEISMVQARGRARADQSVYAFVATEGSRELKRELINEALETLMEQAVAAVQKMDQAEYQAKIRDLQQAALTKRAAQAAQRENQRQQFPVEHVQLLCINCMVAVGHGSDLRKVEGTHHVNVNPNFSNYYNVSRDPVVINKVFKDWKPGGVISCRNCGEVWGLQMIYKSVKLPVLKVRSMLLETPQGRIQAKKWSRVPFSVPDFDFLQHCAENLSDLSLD
Put plainly: malachite green ATPase assay. The conditions noted are these: dsRNA-dependent. The class given is biochemical.

The target in series [1] is T2, chLGP2 (chicken, UniProt G0YYQ5 1-674).
T2 sequence: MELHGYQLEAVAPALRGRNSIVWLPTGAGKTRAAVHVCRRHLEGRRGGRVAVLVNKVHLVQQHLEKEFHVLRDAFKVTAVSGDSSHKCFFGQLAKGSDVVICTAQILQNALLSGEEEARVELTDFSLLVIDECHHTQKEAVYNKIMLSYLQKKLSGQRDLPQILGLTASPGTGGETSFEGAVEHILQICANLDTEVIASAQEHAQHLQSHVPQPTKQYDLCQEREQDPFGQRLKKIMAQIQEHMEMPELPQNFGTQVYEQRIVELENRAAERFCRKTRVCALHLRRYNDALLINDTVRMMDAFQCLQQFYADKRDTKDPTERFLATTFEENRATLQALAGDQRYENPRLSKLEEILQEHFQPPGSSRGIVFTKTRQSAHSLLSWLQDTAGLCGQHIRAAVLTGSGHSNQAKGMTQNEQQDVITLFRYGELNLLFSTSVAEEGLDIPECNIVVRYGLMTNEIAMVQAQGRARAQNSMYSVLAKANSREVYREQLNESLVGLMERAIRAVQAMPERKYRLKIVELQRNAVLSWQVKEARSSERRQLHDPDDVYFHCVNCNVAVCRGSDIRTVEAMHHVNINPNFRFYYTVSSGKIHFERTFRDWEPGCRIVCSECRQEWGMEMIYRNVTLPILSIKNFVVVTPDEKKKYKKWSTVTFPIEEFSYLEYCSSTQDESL
Put plainly: crystal structure; ADP:AlF4, Mg2+; Fluorescence anisotropy: 5'-FAM 12-mer annealed to unlabeled complement, protein titrated, ex 495 / em 515 nm, fit with Hill coefficient (n=1 for RIG-I); buffer, salt, pH and temperature not in the material. The conditions noted are these: protein: recombinant, tags: SUMO fusion. Background: In fluorescence polarisation assays a small probe gives low polarisation when free and higher when bound to something large.

The target of series [2] is T2, chLGP2. Put plainly: crystal structure; no nucleotide; Fluorescence anisotropy: 5'-FAM 12-mer annealed to unlabeled complement, protein titrated, ex 495 / em 515 nm, fit with Hill coefficient (n=1 for RIG-I); buffer, salt, pH and temperature not in the material. The conditions noted are these: protein: recombinant; tags: SUMO fusion; 2 copies of self-complementary strand.

Series [3] has as its target T2, chLGP2. Put plainly: fluorescence anisotropy; affinity independent of bound nucleotide; Fluorescence anisotropy: 5'-FAM 12-mer annealed to unlabeled complement, protein titrated, ex 495 / em 515 nm, fit with Hill coefficient (n=1 for RIG-I); buffer, salt, pH and temperature not in the material. Particulars: protein: recombinant; tags: SUMO fusion; label: 5'-FAM on one strand; blunt.

For series [4], the target named is T2, chLGP2. Description: fluorescence anisotropy; same affinity as 5'OH; Fluorescence anisotropy: 5'-FAM 12-mer annealed to unlabeled complement, protein titrated, ex 495 / em 515 nm, fit with Hill coefficient (n=1 for RIG-I); buffer, salt, pH and temperature not in the material. Particulars: protein: recombinant; tags: SUMO fusion; label: 5'-FAM on one strand; blunt.

The target of another series is T3, hRIG-I (human, UniProt O95786 1-925).
T3 sequence: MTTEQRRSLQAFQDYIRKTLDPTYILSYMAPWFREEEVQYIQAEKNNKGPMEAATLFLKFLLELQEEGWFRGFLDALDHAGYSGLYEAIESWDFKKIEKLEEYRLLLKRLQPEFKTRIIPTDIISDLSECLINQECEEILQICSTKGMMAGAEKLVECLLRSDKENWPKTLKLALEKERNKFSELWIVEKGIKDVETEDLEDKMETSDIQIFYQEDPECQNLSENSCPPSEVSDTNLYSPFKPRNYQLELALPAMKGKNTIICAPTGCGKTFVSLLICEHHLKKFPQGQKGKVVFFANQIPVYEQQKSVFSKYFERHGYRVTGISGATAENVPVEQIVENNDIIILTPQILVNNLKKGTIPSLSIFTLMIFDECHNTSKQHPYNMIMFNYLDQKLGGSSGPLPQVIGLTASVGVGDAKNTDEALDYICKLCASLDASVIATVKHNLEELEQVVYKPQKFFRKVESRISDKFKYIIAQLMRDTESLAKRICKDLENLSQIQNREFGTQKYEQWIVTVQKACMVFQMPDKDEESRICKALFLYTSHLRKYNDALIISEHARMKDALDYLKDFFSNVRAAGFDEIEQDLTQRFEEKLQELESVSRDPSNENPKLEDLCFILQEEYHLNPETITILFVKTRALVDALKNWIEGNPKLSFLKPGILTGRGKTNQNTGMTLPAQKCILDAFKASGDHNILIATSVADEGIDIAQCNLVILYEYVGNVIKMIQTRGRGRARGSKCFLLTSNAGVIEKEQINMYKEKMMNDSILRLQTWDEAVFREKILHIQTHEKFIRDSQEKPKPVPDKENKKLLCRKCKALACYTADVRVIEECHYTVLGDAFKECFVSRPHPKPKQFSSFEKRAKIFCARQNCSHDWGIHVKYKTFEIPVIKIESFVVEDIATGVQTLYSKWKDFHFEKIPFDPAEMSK
Put plainly: fluorescence anisotropy; ADP:AlF4; Fluorescence anisotropy: 5'-FAM 12-mer annealed to unlabeled complement, protein titrated, ex 495 / em 515 nm, fit with Hill coefficient (n=1 for RIG-I); buffer, salt, pH and temperature not in the material. Particulars: protein: recombinant; label: 5'-FAM on one strand; blunt.

In series [5] the target is T2, chLGP2. Put plainly: fluorescence anisotropy; Fluorescence anisotropy: 5'-FAM 12-mer annealed to unlabeled complement, protein titrated, ex 495 / em 515 nm, fit with Hill coefficient (n=1 for RIG-I); buffer, salt, pH and temperature not in the material. Particulars: protein: recombinant; tags: SUMO fusion; label: 5'-FAM on one strand; 5' overhang.
[6] abbreviates: blunt, 2 copies of self-complementary strand.

In the case of `Nc1ncnc2c1ncn2[C@@H]1O[C@H](COP(=O)(O)OP(=O)(O)OP(=O)(O)O)[C@@H](O)[C@H]1O` [ATP], the “malachite green ATPase assay” value at hLGP2 is “both chLGP2 and hLGP2 ATPase activity is strictly dsRNA dependent”.

B1: 5'p 10-mer palindromic dsRNA (dsRNA)
RNA 1: GGUACGUACC
RNA 2: GGUACGUACC
modifications: 5' monophosphate
For B1, in the series with chLGP2 [1] (setting [6]), the binding result is given as “binds”.

B2: 5'p 12-mer palindromic dsRNA (dsRNA)
RNA 1: GGUAGCGCUACC
RNA 2: GGUAGCGCUACC
modifications: 5' monophosphate
As for B2, the binding result with chLGP2 [2] is “binds”.

B3: 5'ppp 26-mer hairpin with 3' GG overhang (structured_RNA)
RNA: GGAGCGUGCCGUACGGCACGCUCCGG
modifications: 5' triphosphate
As for B3, the binding result in the series with chLGP2 [1] (hairpin, 3' overhang 2 nt (GG)) is on record as “binds”.

B4: 5'OH 12-mer blunt dsRNA (anisotropy) (dsRNA)
RNA 1: GGGCUCCACAUG
RNA 2: CAUGUGGAGCCC
For the molecule B4, the binding result with chLGP2 [3] is reported as “binds”.

B5: 5'ppp 10-mer palindromic dsRNA (dsRNA)
RNA 1: GGUACGUACC
RNA 2: GGUACGUACC
modifications: 5' triphosphate
For B5, the binding result with chLGP2 [1] (setting [6]) is listed as “binds”.

B6: 5'ppp 12-mer blunt dsRNA (anisotropy) (dsRNA)
RNA 1: GGGCUCCACAUG
RNA 2: CAUGUGGAGCCC
modifications: 5' triphosphate
Consider B6, for which the binding result in the series with chLGP2 [4] is “binds”. Further, the Kd in the series with hRIG-I was about 1 nM.

B7: 5' overhang dsRNA (anisotropy) (dsRNA)
RNA 1: AACCGGUCACGC
RNA 2: AAGCGUGACCGG
As to B7, the binding signal in the series with chLGP2 [5] was ~2 fold lower affinity than blunt end.
